Assay results reported in patent publication US20240150449A1.
Where a chain is given by its changes, count along the chain named. One block for each binder: values may come before it.

Columns and labels:
[1] = target: recombinant in vitro phosphorylated full-length TDP-43 (TDP-43-MBP phosphorylated with casein kinase 1 delta) (human) (UniProt Q13148); test: SPR Biacore 8K, 25 C, in vitro phosphorylated TDP-43 amine-coupled on CM5, IgG as analyte (avidity)
[2] = target: recombinant in vitro phosphorylated full-length TDP-43 (TDP-43-MBP phosphorylated with casein kinase 1 delta) (human) (UniProt Q13148); test: SPR Biacore 8K, 25 C, in vitro phosphorylated TDP-43 amine-coupled on CM5, Fab as analyte

Kd [1]: 0.01 nM
koff [1]: 0.0003 s⁻¹
kon [1]: 2.5e+07 M⁻¹ s⁻¹
B1: antibody 31F3 (human IgG) (antibody, V domains shown)
VH: QVQLEQSGAEVKRPGASVKVSCKASGYTFTGYYLHWVRQAPGQGLEWMGRINPGSGGTKYAQKFQGRVSMTRDTSISTAYMEVNRLRPDDTAVYYCARYQVYGERGRYMDVWGKGTTVTVSS
VL: QSALTQPASVSGSPGQSITISCTGTSSDVGTYDLVSWYQQHPGKAPKLIIYEDNKRPSGLSNRFSGSKSGNTASLTISGLQADDEADYYCCSYAAISTLIFGGGTKVTVL

Kd [1]: 0.02 nM
koff [1]: 0.00061 s⁻¹
kon [1]: 3e+07 M⁻¹ s⁻¹
B2: antibody 30E1 (human IgG) (antibody, V domains shown)
VH: QVQLVQSGAEVKKPGASVKVSCKTSGYTFTDYYLHWVRQAPGQGLEWMGRINPNSGNTNYAQKFQGRVSVTRDTSISTAYMELSRLSSDDTAVYFCARVKIVVLRSTPTLYYFDYWGQGTLVTVSS
VL: B1 VL with L48V, I49M, D53G, N54S, L60V, D83E, A95G, I96T, I100V

Kd [2]: 2.5 nM
koff [2]: 0.017 s⁻¹
kon [2]: 6.8e+06 M⁻¹ s⁻¹
B3: 31F3 Fab (Fab, V domains shown)
VH: B1 VH
VL: B1 VL

Kd [2]: 34 nM
koff [2]: 0.11 s⁻¹
kon [2]: 3.1e+06 M⁻¹ s⁻¹
B4: 30E1 Fab (Fab, V domains shown)
VH: B2 VH
VL: B1 VL with L48V, I49M, D53G, N54S, L60V, D83E, A95G, I96T, I100V
